We go through one molecule from publication PMC3355305, “Localized Dimerization and Nucleoid Binding Drive Gradient Formation by the Bacterial Cell Division Inhibitor MipZ” (Molecular Cell, 2012).

The subject of test [1] is double-stranded oligonucleotide (ran2). As to the kind of experiment: SPR analysis of the interaction between MipZ and DNA. It is filed as binding. As to the method:
Figure S5. Surface plasmon resonance (SPR) analysis of the interaction betw een MipZ and DNA, Related to Figure 4.
(A) Effect of Mg2+ on the DNA-binding activity of MipZ. A double-stranded oligonucleotide (ran2, 700 RU) was immobilized on an SPR sensor chip and probed with MipZ (1 µM). The binding reactions were performed in buffer BC containing the indicated nucleotide (2 mM) and no (ATP + Mg2+) or 10 mM (no nucleotide, ADP, ATP) EDTA, respectively.
(B) DNA-binding specificity of MipZ. A double-stranded oligonucleotide (ran2, 500 RU) was immobilized on an SPR sensor chip and allowed to react with MipZ protein (1 µM) that had been preincubated with 2 mM ATP and a double-stranded oligonucleotide (ran2, 6 µM) (dsDNA), a single-stranded oligonucleotide (top strand of ran2, 6 µM) (ssDNA), an oligoribo-nucleotide (with a sequence analogous to the top strand of ran2, 6 µM) (RNA) or polyphosphate (25 µg/ml) (PP), respectively. A reaction performed in the absence of any competitor served as a control. […]
experimental conditions used (data not shown). The dissociation rate constant determined for the reaction without ParB was […]
obtained from crystals flash frozen in a solution of 95% 2 mM, sa mp le s were taken and analyzed for the amount ethanol/50 mM Tris (pH 8.5), and collected at ID23-2, of [α-32P]-GDP produced in the reaction as described ESRF (Grenoble, France). […]

In the next test the target is ParB. More on the design: method as in Thanbichler and Shapiro, 2006. As to conditions: apo-MipZ; ref Thanbichler and Shapiro, 2006; cited from earlier work.

B1: MipZ: P loop ATPase and cell division inhibitor of Caulobacter crescentus; hexahistidine-tagged in vitro, YFP fusion in FRAP (protein)
chain: MAETRVIVVGNEKGGAGKSTIAVHLVTALLYGGAKVAVIDLDLRQRTSARFFENRRAWLDNKKIELPEPLALNLSDNDVALAERPEEEQVAGFEAAFARAMAECDFILIDTPGGDSAITRMAHGRADLVVTPMNDSFVDFDMLGTVDPVTLELTKPSLYSLTVWEGRKQRALSGQRQAMDWVVLRNRLATTEARNRKRLEDRLNALAKRVGFRIGPGLRDRVIYRELFPFGLTIADLSPQVRPVPVSLQHLAARQELRALMHSLGLSAYSGETMLAAQ
modifications: left off: His6, end not stated, state not stated
notes: hexahistidine-tagged in vitro, YFP fusion in FRAP
Consider B1, for which the “rate constant for the dissociation of MipZ from DNA (koff)” value in test [1] (MipZ 0.5 µM, 2 mM ATP, without ParB) came to 1.5 min⁻¹. Further, the “half-time t1/2 of dissociation of MipZ from DNA” value in test [1] (in vitro) is 28 s. Moreover, the Kd (in general, the free concentration of one partner at which half of the binding sites on the other are occupied at equilibrium, for simple one-to-one binding) at ParB is approximately 2000 nM.
